{
  "source": "patent US10512676B2",
  "about": "“Formulations comprising recombinant acid alpha-glucosidase” (Amicus Therapeutics, Inc., priority 2016, dated 2019)",
  "key": {"[1]": {"test_system": "normal and Pompe fibroblast cell lines", "experiment": "Cellular uptake of rhGAA in normal and Pompe fibroblast cell lines", "assay_type": "cell-based", "procedure": "The relative cellular uptake of ATB200 and Lumizyme® rhGAA were compared using normal and Pompe fibroblast cell lines. […] After 16-hr incubation, external rhGAA was inactivated with TRIS base and cells were washed 3-times with PBS prior to harvest. Internalized GAA measured by 4MU-α-Glucoside hydrolysis and was graphed relative to total cellular protein and the results appear in FIGS. 11A-B."}, "[2]": {"experiment": "Flocculation study: test article mixed with equal volume of saline (macro, micro, pellet)", "design": "key: 0=negative; 1=very slight precipitation or pellet; 2=minimal precipitation or pellet; 3=moderate precipitation or pellet; 4=significant precipitation or pellet", "procedure": "Test article dosing solutions (3 concentrations) and the placebo (3 concentrations) were mixed with equal volumes of human plasma and serum from a donor. […] The placebo was the same as the test article except there was no ATB200 rhGAA.\nOne ml of each dose of test article or placebo, was mixed with an equal volume of plasma, serum and saline. Samples were incubated for 30 minutes at room temperature. After incubation the tubes were examined macroscopically and microscopically for precipitation or coagulation. An aliquot from each tube was centrifuged at 14,000 rpm in a microcentrifuge for 10 minutes. Each tube was examined for the presence or absence of a pellet. Precipitation/coagulation and pellets were scored as follows: • 0=negative • 1=very slight precipitation or pellet • 2=minimal precipitation or pellet • 3=moderate precipitation or pellet • 4=significant precipitation or pellet"}, "CIMPR": {"target": "CIMPR (Homo sapiens, UniProt P11717)", "sequence (P11717 41-2491, species assumed)": "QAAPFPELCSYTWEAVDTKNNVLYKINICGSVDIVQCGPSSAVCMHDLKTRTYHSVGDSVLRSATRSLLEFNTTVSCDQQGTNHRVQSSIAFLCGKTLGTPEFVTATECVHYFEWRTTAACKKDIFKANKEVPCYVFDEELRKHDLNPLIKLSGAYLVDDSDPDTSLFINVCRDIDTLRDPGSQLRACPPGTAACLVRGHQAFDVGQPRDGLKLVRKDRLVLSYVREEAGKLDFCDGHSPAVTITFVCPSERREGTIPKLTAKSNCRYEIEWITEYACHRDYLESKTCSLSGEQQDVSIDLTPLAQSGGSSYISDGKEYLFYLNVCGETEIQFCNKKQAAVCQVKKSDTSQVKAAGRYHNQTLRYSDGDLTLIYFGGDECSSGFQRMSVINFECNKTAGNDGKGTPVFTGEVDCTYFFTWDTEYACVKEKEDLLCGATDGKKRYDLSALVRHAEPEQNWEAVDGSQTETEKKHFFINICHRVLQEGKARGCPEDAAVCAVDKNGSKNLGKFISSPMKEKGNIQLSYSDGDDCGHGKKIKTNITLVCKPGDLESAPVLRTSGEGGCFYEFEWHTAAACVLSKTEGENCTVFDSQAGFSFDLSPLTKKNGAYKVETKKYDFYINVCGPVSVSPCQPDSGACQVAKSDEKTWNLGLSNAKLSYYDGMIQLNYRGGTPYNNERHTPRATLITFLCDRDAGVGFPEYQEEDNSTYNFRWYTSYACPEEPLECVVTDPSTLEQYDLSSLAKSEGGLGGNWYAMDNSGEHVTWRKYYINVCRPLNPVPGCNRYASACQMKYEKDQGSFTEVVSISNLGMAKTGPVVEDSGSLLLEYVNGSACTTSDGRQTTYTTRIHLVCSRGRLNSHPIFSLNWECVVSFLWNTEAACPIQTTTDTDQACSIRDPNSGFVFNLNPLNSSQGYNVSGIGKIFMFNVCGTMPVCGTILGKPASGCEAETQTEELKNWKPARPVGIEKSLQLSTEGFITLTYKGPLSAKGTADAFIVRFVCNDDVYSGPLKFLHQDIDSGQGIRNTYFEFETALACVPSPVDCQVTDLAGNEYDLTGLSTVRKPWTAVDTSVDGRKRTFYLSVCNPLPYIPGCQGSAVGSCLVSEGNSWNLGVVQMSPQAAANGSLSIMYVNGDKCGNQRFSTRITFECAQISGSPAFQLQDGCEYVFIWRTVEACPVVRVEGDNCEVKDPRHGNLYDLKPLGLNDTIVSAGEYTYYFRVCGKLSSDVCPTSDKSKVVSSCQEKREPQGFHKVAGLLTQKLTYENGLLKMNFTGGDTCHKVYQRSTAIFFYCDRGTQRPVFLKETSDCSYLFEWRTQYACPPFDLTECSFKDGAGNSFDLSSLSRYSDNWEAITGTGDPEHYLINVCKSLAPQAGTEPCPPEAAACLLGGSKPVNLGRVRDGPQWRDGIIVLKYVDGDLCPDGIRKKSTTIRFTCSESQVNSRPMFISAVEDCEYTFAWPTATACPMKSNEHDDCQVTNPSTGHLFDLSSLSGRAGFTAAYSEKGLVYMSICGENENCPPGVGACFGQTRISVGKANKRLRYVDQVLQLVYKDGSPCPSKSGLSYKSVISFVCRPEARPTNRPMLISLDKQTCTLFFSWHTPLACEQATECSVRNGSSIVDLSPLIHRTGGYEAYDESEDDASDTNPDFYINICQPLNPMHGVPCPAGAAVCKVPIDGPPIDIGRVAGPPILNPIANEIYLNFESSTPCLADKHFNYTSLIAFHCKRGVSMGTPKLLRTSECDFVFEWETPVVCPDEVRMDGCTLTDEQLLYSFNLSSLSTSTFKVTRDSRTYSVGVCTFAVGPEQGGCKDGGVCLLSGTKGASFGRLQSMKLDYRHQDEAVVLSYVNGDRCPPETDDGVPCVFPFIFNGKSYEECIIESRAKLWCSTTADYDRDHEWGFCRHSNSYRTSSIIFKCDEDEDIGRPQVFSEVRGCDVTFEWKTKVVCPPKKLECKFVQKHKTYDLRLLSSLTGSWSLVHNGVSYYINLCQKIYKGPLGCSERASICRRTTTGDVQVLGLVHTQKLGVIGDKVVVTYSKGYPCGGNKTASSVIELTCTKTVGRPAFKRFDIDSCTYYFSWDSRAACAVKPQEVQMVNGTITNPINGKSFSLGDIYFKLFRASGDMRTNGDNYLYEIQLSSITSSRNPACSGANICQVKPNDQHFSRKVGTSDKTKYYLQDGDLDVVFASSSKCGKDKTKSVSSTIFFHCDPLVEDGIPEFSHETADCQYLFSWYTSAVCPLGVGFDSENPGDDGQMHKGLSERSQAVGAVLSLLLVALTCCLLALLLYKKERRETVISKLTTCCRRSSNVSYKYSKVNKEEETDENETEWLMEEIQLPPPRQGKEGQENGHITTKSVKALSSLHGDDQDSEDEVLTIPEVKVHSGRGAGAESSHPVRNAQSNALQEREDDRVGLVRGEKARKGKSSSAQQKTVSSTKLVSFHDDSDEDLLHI", "experiment": "CIMPR plate binding assay", "procedure": "In addition to having a greater percentage of rhGAA that can bind to the CIMPR, it is important to understand the quality of that interaction. […] Briefly, CIMPR-coated plates were used to capture GAA. Varying concentrations of rhGAA were applied to the immobilized receptor and unbound rhGAA was washed off. The amount of remaining rhGAA was determined by GAA activity."}, "Gaa knockout mice": {"test_system": "Gaa knockout mice", "experiment": "Glycogen reduction in Gaa-knockout mice", "assay_type": "in vivo, mouse", "source_text": "Animals were given two IV bolus administrations (every other week); tissues were harvested two weeks after the last dose and analyzed for acid α-glucosidase activity and glycogen content.\nTissues were collected 14 days after last enzyme dose for glycogen measurement."}, "[3]": {"experiment": "Safety and tolerability in patients with Pompe disease", "assay_type": "in vivo, human", "settings": "alone and in combination with miglustat", "procedure": "Mean total GAA protein and miglustat PK results from the first 8 Cohort 1 patients through Visit 9 and the first 2 Cohort 3 patients were assessed."}},
  "data": [
    {"substance": "ATB200: recombinant human acid α-glucosidase expressed in CHO cells with increased content of M6P-bearing N-glycans", "values": [
      {"measurement": "concentration that saturates cellular receptors", "setting": "[1]; 16-hr incubation", "result": "about 20 nM"},
      {"measurement": "internalization into normal and Pompe fibroblast cells", "setting": "[1]; versus Lumizyme", "result": "internalized to a greater degree than conventional Lumizyme® rhGAA"},
      {"measurement": "Saline Macro (precipitation/coagulation score)", "setting": "[2]; Final concentration 300 μg/mL", "result": 0},
      {"measurement": "Saline Micro (precipitation/coagulation score)", "setting": "[2]; Final concentration 300 μg/mL", "result": 0},
      {"measurement": "Saline Pellet (score)", "setting": "[2]; Final concentration 300 μg/mL", "result": 0},
      {"measurement": "Saline Macro (precipitation/coagulation score)", "setting": "[2]; Final concentration 600 μg/mL", "result": 0},
      {"measurement": "Saline Micro (precipitation/coagulation score)", "setting": "[2]; Final concentration 600 μg/mL", "result": 0},
      {"measurement": "Saline Pellet (score)", "setting": "[2]; Final concentration 600 μg/mL", "result": 0},
      {"measurement": "Saline Macro (precipitation/coagulation score)", "setting": "[2]; Final concentration 1000 μg/mL", "result": 0},
      {"measurement": "Saline Micro (precipitation/coagulation score)", "setting": "[2]; Final concentration 1000 μg/mL", "result": 0},
      {"measurement": "Saline Pellet (score)", "setting": "[2]; Final concentration 1000 μg/mL", "result": 0},
      {"measurement": "Kd", "setting": "CIMPR; binding to CIMPR, M6P receptor plate binding assays", "result": "2 to 4", "unit": "nM"},
      {"measurement": "binding to CIMPR", "setting": "CIMPR; versus Lumizyme, FIG. 10A", "result": "bound to CIMPR significantly better than Lumizyme®"},
      {"measurement": "relative reduction of glycogen in quadriceps and triceps", "setting": "Gaa knockout mice; 20 mg/kg IV every other week, 4 injections, FIG. 13", "result": "greater reduction of glycogen than Lumizyme®"},
      {"measurement": "tissue glycogen depletion", "setting": "Gaa knockout mice; 5, 10, 20 mg/kg, two IV bolus administrations every other week", "result": "deplete tissue glycogen in acid α-glucosidase (Gaa) knockout mice in a dose-dependent fashion"},
      {"measurement": "reduction of glycogen levels in skeletal muscles", "setting": "Gaa knockout mice; ATB200 10 and 20 mg/kg vs Lumizyme 20 mg/kg", "result": "significantly better reduction of glycogen levels in skeletal muscles than Lumizyme®"},
      {"measurement": "safety and tolerability", "setting": "[3]", "result": "safe and well tolerated"}
    ]}
  ]
}
